Data on two molecules can be found in US20040106557A1.

Ends that are not written are not given here.

Experiment [1] deals with Prostate specific antigen (PSA), purified from human seminal fluid (human) (UniProt P07288). As to the kind of experiment: inhibition IFMA: 200 µl fraction preincubated with PSA captured by MAb 5E4, then GST-C4 (167 nM); competitor GST-C-4.
Experiment [2] addresses PSA-alpha-2-macroglobulin complex (PSA-A2M), purified (human) (UniProt P07288). As to the kind of experiment: cell-based or functional assay.

B1: peptide cleaved from GST-C-4 by thrombin (about 3 kD, estimated 31 residues) (peptide, part only; not given: vector flanking residues, part only)
peptide, part: CVAYCIEHHCWTC
Molecule B1 displayed a reduction of the binding of GST-peptide to PSA (%) in experiment [1] of 30%.

B2: chemically synthesized peptide C-4 with GA flanks (…) (peptide)
peptide: GACVAYCIEHHCWTCGA
modifications: disulfide (positions not given here); not fully specified (bridges); also: cyclic, disulphide bonds between cysteines, pairing of the four Cys not given here
In experiment [2], B2 registered an enzyme activity of A2M-complexed PSA (S-2586, OD 405 nm), 50-fold molar excess of peptide of 2 fold.
